Experimental findings from PMC11544177 (Acta Pharmaceutica Sinica. B, 2024) are described below.

Data set [1] deals with T1, mitochondrial acetyl-CoA acetyltransferase 1 (ACAT1) (Homo sapiens, UniProt P24752).
T1 sequence (P24752 34-427): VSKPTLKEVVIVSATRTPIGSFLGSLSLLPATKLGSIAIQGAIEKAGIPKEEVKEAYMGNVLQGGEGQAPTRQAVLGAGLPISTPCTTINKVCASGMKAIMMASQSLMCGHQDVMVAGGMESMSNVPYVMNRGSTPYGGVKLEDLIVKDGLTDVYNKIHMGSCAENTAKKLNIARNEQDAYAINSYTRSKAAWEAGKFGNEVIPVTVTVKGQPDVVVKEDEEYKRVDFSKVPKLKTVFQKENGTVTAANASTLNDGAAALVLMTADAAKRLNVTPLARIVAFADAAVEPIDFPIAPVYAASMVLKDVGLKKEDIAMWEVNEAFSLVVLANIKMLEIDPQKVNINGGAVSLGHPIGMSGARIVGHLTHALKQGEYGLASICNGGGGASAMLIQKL
The experiment in a line: SPR. The format is binding.

For data set [2], the target named is mitochondrial acetyl-CoA acetyltransferase 1 (ACAT1), purified recombinant human, His-tagged (human) (UniProt P24752). The experiment in a line: cryo-EM structure.
Data set [3] shares this target. Kind of data set: negative-stain electron microscopy.
The target is the same in data set [4]. Kind of data set: native gel or EMSA. For orientation: Mobility shift assays separate free from complexed probe on a gel.
The data set “native gel or EMSA” deals with the molecule itself. Kind of data set: native gel or EMSA.

On to `O=C(/C=C/c1ccc(O)c(O)c1)O[C@@H]1C[C@](O)(C(=O)O)C[C@@H](O)[C@H]1O` [CGA, Chlorogenic acid], for which the Kd (as a rule, the equilibrium constant for the complex coming apart) in data set [1] is about 2580 nM. Consider “mitochondrial acetyl-CoA acetyltransferase 1 (ACAT1), purified recombinant human, His-tagged (from UniProt P24752 34-427) (enzyme)”, for which the stoichiometry N in data set [2], in data set [3] and in data set [4] was 4 in each case.

B1: ACAT1, endogenous in A375 human melanoma cells (enzyme, human (endogenous in A375), UniProt P24752 34-427, looked up)
chain: VSKPTLKEVVIVSATRTPIGSFLGSLSLLPATKLGSIAIQGAIEKAGIPKEEVKEAYMGNVLQGGEGQAPTRQAVLGAGLPISTPCTTINKVCASGMKAIMMASQSLMCGHQDVMVAGGMESMSNVPYVMNRGSTPYGGVKLEDLIVKDGLTDVYNKIHMGSCAENTAKKLNIARNEQDAYAINSYTRSKAAWEAGKFGNEVIPVTVTVKGQPDVVVKEDEEYKRVDFSKVPKLKTVFQKENGTVTAANASTLNDGAAALVLMTADAAKRLNVTPLARIVAFADAAVEPIDFPIAPVYAASMVLKDVGLKKEDIAMWEVNEAFSLVVLANIKMLEIDPQKVNINGGAVSLGHPIGMSGARIVGHLTHALKQGEYGLASICNGGGGASAMLIQKL
In the case of B1, in the data set “native gel or EMSA”, the stoichiometry N – broadly, a count of units in the complex or per binding partner – is 4.
